In US20120077957A1, “Lactam-Bridged Melanocortin Receptor-Specific Peptides” (PALATIN TECHNOLOGIES, INC., priority 2009, published 2012) one finds Ki data, which are given here for six molecules.

Bridge positions count the residues as written; N and C are the ends. Square brackets hold non-standard residues; d marks the D form. Orn = NCCC[C@H](N)C(=O)O; Dab = NCC[C@H](N)C(=O)O

B1: Asp...Lys analog of peptide No. 8: Ac-Arg-cyclo(Asp-Orn-D-Phe-Arg-Trp-Lys)-NH2 (peptide)
peptide: Ac-RD[Orn][dF]RWK-NH2
modifications: lactam 2-7
B2: Asp...Lys analog of peptide No. 33: Ac-Arg-cyclo(Asp-Orn(Acetyl)-D-Phe-Arg-Trp-Lys)-NH2 (peptide)
peptide: Ac-RD[Orn](Ac)[dF]RWK-NH2
modifications: lactam 2-7
B3: Asp...Lys analog of peptides No. 5 and No. 42: Ac-Arg-cyclo(Asp-Dab-D-Phe-Arg-Trp-Lys)-OH (peptide)
peptide: Ac-RD[Dab][dF]RWK-OH
modifications: lactam 2-7
B4: Asp...Lys analog of peptide No. 18: Ac-Arg-cyclo(Asp-Dab(Acetyl)-D-Phe-Arg-Trp-Lys)-NH2 (peptide)
peptide: Ac-RD[Dab](Ac)[dF]RWK-NH2
modifications: lactam 2-7
SMILES: CC(=O)NCC[C@@H]1NC(=O)[C@@H](NC(=O)[C@H](CCCNC(=N)N)NC(C)=O)CC(=O)NCCCC[C@@H](C(N)=O)NC(=O)[C@H](Cc2c[nH]c3ccccc23)NC(=O)[C@H](CCCNC(=N)N)NC(=O)[C@@H](Cc2ccccc2)NC1=O
B5: Asp...Lys analog of peptide No. 7: Ac-Arg-cyclo(Asp-Orn-D-Phe-Arg-Trp-Lys)-OH (peptide)
peptide: Ac-RD[Orn][dF]RWK-OH
modifications: lactam 2-7
B6: Asp...Lys analog of peptides No. 6 and No. 43: Ac-Arg-cyclo(Asp-Dab-D-Phe-Arg-Trp-Lys)-NH2 (peptide)
peptide: Ac-RD[Dab][dF]RWK-NH2
modifications: lactam 2-7

For the assay, the target named is human melanocortin-4 receptor (recombinant hMC4-R) (human), P32245. Description: competition with labelled NDP-α-MSH ([I125] or Eu), hMC4-R HEK-293 membranes. The following applies: remark: other sources report otherwise.
Chain of human melanocortin-4 receptor (recombinant hMC4-R) (human), P32245 (P32245 whole entry): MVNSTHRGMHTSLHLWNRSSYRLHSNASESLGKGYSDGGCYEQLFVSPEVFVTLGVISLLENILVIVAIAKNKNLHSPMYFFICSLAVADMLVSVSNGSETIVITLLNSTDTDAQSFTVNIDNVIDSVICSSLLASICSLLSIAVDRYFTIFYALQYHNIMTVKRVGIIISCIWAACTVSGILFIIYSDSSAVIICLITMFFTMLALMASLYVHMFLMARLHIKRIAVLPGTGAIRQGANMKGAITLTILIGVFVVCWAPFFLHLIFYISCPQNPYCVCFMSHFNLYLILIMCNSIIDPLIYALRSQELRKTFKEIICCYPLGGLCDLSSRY
Turning to B1, the Ki came to 7 nM.

With B2, the Ki was determined as 573 nM.

As to B3, the Ki turned out to be 56 nM.

Take B4: the Ki was 33 nM.

In the case of B5, the Ki worked out at 18 nM.

In the case of B6, the Ki came to 4 nM.

For orientation: Ki means a measure of affinity in units of concentration, obtained from inhibition or displacement.
